Experimental findings from patent publication US20200262867A1 (WNTRX PHARMACEUTICALS, published 2020) are described below.

*1 amine or outer side, *2 acyl side, *3 side chain or, on linkers, in order; H or OH if unused. Bridges are numbered along the chain shown (N, C = ends). Primed or numbered codes have the meaning given here. Where no end group is shown, it is not given here. Side-chain parts run from the residue outwards. [ ]: non-standard residue; d: D form. The star is where a group is joined. peptoid‑Q = (5-amino-5-oxopentyl)glycine, N-substituted glycine, NC(=O)CCCCN(CC(=O)[*:2])[*:1]; Diphenylacetyl = O=C(C(c1ccccc1)c1ccccc1)*; 2Nal = N[C@@H](Cc1ccc2ccccc2c1)C(=O)O; Hydrocinnamoyl = O=C(CCc1ccccc1)*; NMeR = CN[C@@H](CCCNC(=N)N)C(=O)O; Palmitoyl = CCCCCCCCCCCCCCCC(=O)*; Ala(cPr) = N[C@@H](CC1CC1)C(=O)O; hArg = N=C(N)NCCCC[C@H](N)C(=O)O; NMeE = CN[C@@H](CCC(=O)O)C(=O)O; NMeQ = CN[C@@H](CCC(N)=O)C(=O)O; dNMeQ = CN[C@H](CCC(N)=O)C(=O)O; Cha = N[C@@H](CC1CCCCC1)C(=O)O; Cba = N[C@@H](CC1CCC1)C(=O)O; S5 = C=CCCC[C@](C)(N)C(=O)O; Ac6c = NC1(C(=O)O)CCCCC1; PEG4′ = not defined here; Hexanoyl = CCCCCC(=O)*; Propionyl = CCC(=O)*; βAla = NCCC(=O)O

Usually IC50 stands for the concentration at which inhibition is half-maximal. A low value points to inhibition by little substance.

Test [1] deals with T1, β-catenin (UniProt P35222 1-781, limits assumed).
T1 sequence (looked up): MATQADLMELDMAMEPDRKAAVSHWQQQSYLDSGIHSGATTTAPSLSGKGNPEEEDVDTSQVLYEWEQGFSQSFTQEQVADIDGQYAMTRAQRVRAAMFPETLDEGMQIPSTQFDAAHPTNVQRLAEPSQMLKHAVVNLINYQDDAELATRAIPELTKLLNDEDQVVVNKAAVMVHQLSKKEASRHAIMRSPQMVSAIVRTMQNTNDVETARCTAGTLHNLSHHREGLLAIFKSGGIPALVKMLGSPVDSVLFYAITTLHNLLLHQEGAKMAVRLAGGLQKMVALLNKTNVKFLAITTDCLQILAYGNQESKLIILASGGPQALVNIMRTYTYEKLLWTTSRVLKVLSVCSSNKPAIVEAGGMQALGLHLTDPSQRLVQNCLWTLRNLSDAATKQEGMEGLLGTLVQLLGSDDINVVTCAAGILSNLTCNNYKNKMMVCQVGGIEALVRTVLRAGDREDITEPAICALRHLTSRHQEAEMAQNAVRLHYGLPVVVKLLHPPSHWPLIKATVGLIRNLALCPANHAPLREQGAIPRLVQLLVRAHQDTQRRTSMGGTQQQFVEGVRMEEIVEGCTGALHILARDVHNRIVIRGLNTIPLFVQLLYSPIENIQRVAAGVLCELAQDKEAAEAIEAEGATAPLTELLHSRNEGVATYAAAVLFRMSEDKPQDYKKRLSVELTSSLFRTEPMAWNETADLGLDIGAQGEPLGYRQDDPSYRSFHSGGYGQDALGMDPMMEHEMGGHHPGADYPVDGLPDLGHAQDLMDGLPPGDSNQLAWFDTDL
The experiment in a line: cell-based or functional assay.

Test [2] deals with T1, β-catenin. The test is described as follows: ALPHA Screen (BCL9/β-catenin).
Text: In this assay, a polypeptide is conjugated to a donor bead and its target protein (i.e., β-catenin) is attached to an acceptor bead. When the two beads are in proximity due to the binding of the polypeptide to the target protein, a signal is generated and the binding affinity of the polypeptide can be quantitatively calculated. The assay may be conducted in the presence or absence of an unconjugated control polypeptide.
Test [3] addresses T2, β-catenin, P35222.
T2 chain: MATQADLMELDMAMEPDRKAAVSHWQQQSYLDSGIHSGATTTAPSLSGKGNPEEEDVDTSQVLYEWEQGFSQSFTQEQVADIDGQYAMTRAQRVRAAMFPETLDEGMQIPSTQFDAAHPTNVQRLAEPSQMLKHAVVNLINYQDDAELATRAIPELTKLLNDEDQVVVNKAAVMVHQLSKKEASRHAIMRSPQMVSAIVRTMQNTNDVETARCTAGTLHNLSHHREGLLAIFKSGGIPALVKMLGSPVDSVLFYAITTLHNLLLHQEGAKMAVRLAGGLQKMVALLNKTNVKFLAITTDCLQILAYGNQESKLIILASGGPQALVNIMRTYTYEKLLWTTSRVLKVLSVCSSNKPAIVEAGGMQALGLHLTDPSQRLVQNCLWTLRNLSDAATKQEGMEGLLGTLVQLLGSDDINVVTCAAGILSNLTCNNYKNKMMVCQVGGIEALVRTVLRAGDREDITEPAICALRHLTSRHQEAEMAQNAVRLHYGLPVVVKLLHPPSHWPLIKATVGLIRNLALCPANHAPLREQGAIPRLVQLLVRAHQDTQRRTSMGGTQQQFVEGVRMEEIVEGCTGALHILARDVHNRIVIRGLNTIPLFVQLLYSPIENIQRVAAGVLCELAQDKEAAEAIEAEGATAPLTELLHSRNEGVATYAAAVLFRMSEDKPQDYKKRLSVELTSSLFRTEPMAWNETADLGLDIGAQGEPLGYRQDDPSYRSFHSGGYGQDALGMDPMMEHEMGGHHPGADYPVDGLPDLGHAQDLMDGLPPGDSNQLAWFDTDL
The experiment in a line: cell-based or functional assay.

The target in test [4] is T2, β-catenin, P35222. The experiment in a line: ALPHA Screen (BCL9/β-catenin).

On to Ac-HRQRSLQTLR[S5]IQR[S5][Ala(cPr)][2Nal]-NH2 (staple 11-15) [SEQ ID NO: 162], for which the “IC50, Wnt/Beta-Catenin-LEF-TCF-bla HCT116 inhibitor screen” value in the test with β-catenin [1] was found to be 7050 nM. Besides, half-maximal inhibition in the test with β-catenin [2] (IC50) was put at 322 nM.
Turning to Ac-HR[NMeQ]RSL[NMeQ]TLR[S5]IQR[S5][Cha][2Nal]-NH2 (staple 11-15; also: N-methylQ at 3 and 7: D or L (both stated)) [SEQ ID NO: 181], in the test with β-catenin [1], the “IC50, Wnt/Beta-Catenin-LEF-TCF-bla HCT116 inhibitor screen” value was 4460 nM. For the same molecule, in the test with β-catenin [2], 186 nM corresponded to half-maximal inhibition (IC50).
In the test with β-catenin [2], {2‑cyclohexylacetyl}-L[NMeQ]TLR[S5]IQR[S5][Cba][2Nal]-NH2 (staple 6-10; also: N-methyl-Gln at 2: filing says both D and L) [SEQ ID NO: 138] yielded an IC50 of 3820 nM.

B1: SEQ ID NO: 180 (peptide)
peptide: Ac-HRQRSLQTLR[S5]IQR[S5][Cha][2Nal]-NH2
modifications: staple 11-15
SMILES: CC[C@H](C)[C@@H]1NC(=O)[C@@](C)(NC(=O)[C@H](CCCNC(=N)N)NC(=O)[C@H](CC(C)C)NC(=O)[C@@H](NC(=O)[C@H](CCC(N)=O)NC(=O)[C@H](CC(C)C)NC(=O)[C@H](CO)NC(=O)[C@H](CCCNC(=N)N)NC(=O)[C@H](CCC(N)=O)NC(=O)[C@H](CCCNC(=N)N)NC(=O)[C@H](Cc2c[nH]cn2)NC(C)=O)[C@@H](C)O)CCCC=CCCC[C@@](C)(C(=O)N[C@@H](CC2CCCCC2)C(=O)N[C@@H](Cc2ccc3ccccc3c2)C(N)=O)NC(=O)[C@H](CCCNC(=N)N)NC(=O)[C@H](CCC(N)=O)NC1=O
For B1, in the test with β-catenin [1], the “IC50, Wnt/Beta-Catenin-LEF-TCF-bla HCT116 inhibitor screen” value turned out to be 2210 nM. The same molecule displayed an IC50 in the test with β-catenin [2] of 138 nM.
Ac-HRQ[hArg]SLQTLR[S5]IQR[S5][Cba][2Nal]-NH2 (staple 11-15) [SEQ ID NO: 167] had an IC50 in the test with β-catenin [2] of 356 nM.
Same read-out and setting: next, Ac-RSLQTLR[S5]IQR[S5]L[2Nal]-NH2 (staple 8-12; not fully specified; printed as RSLQTLRXIQRXL(2-Nal)) [SEQ ID NO: 4]: 1910 nM.

B2: SEQ ID NO: 108 (peptide)
peptide: L[dNMeQ]TLR[S5]IQR[S5][Cba][2Nal]
modifications: staple 6-10; not fully specified (N-terminus, C-terminus); printed as L(N-methylQ)TLRXIQRX(CBA)(2-Nal), X/X stapled, (S) α-methyl, N-terminal Ac, C-terminal NH2
Turning to B2, in the test with β-catenin [1], the “IC50, Wnt/Beta-Catenin-LEF-TCF-bla HCT116 inhibitor screen” value came to 3160 nM. Half-maximal inhibition with β-catenin [2] (IC50) required 408 nM.
Take Hydrocinnamoyl-L[NMeQ]TLR[S5]IQR[S5][Cba][2Nal]-NH2 (staple 6-10; also: N-methyl-Gln at 2: filing says both D and L) [SEQ ID NO: 137]: the IC50 with β-catenin [2] turned out to be 8360 nM.
Still for that read-out and setting: next, Diphenylacetyl-L[NMeQ]TLR[S5]IQR[S5][Cba][2Nal]-NH2 (staple 6-10; also: N-methyl-Gln at 2: filing says both D and L) [SEQ ID NO: 139]: 4580 nM.
For Ac-HRQRSLQTLR[S5]IQR[S5][Cba][2Nal]-NH2 (staple 11-15) [SEQ ID NO: 147], the “IC50, Wnt/Beta-Catenin-LEF-TCF-bla HCT116 inhibitor screen” value in the test with β-catenin [1] came out at 1540 nM. The same molecule showed an IC50 in the test with β-catenin [2] of 186 nM.
In the test with β-catenin, P35222 [3], LQTLR[S5]IQR[S5]L[2Nal][βAla][βAla]GRKKRRQRRRPQK([PEG4′-Palmitoyl]) (staple 6-10) [SEQ ID NO: 34a] returned an IC50, Colo320DM cell viability of 20000 nM. This molecule returned an IC50 in the test with β-catenin, P35222 [4] of 1380 nM.
For the molecule Ac-HRQRSL[peptoid‑Q]TLR[S5]IQR[S5][Cba][2Nal]-NH2 (staple 11-15) [SEQ ID NO: 169], in the test with β-catenin [2], the IC50 is 328 nM.

B3: SEQ ID NO: 116 (peptide)
peptide: L[dNMeQ]TLR[S5]I[dNMeQ]R[S5][Cba][2Nal]
modifications: staple 6-10; not fully specified (N-terminus, C-terminus); printed as L(N-methylQ)TLRXI(N-methylQ)RX(CBA)(2-Nal), X/X stapled, (S) α-methyl, N-terminal Ac, C-terminal NH2
In the test with β-catenin [2], B3 came in with an IC50 of 26900 nM.
Ac-HRQ[NMeR]SLQTLR[S5]IQR[S5][Cba][2Nal]-NH2 (staple 11-15) [SEQ ID NO: 168] showed an IC50 with β-catenin [2] of 434 nM.
On the same count and under the same terms, as for Hexanoyl-L[NMeQ]TLR[S5]IQR[S5][Cba][2Nal]-NH2 (staple 6-10; also: N-methyl-Gln at 2: filing says both D and L) [SEQ ID NO: 136], the figure is 3520 nM; as for Propionyl-L[NMeQ]TLR[S5]IQR[S5][Cba][2Nal]-NH2 (staple 6-10; also: N-methyl-Gln at 2: filing says both D and L) [SEQ ID NO: 135], 8540 nM.
Ac-HRQRSLQTLR[S5]IQR[S5][Ac6c][2Nal]-NH2 (staple 11-15) [SEQ ID NO: 177]: in the test with β-catenin [1], the “IC50, Wnt/Beta-Catenin-LEF-TCF-bla HCT116 inhibitor screen” value was 4450 nM. The molecule also gave an IC50 with β-catenin [2] of 211 nM.
Taken in the same sequence, the figures for Ac-HR[NMeE]RSL[NMeQ]TLR[S5]IQR[S5][Cba][2Nal]-NH2 (staple 11-15) [SEQ ID NO: 154] were 2260 nM and 661 nM.

B4: SEQ ID NO: 163 (peptide)
peptide: HRQRSLQT[Cha]R[S5]IQR[S5][Cba][2Nal]
modifications: staple 11-15; not fully specified (residues 3, 7, N-terminus, C-terminus); printed as HR(N-methylQ)RSL(N-methylQ)T(Cha)RXIQRX(CBA)(2-Nal), X/X stapled, (S) α-methyl, N-terminal Ac, C-terminal NH2
Turning to B4, the “IC50, Wnt/Beta-Catenin-LEF-TCF-bla HCT116 inhibitor screen” value in the test with β-catenin [1] was 4430 nM. Moreover, the IC50 in the test with β-catenin [2] is 195 nM.
Consider {3,5‑dihydroxybenzoic acid}-L[NMeQ]TLR[S5]IQR[S5][Cba][2Nal]-NH2 (staple 6-10; also: N-methyl-Gln at 2: filing says both D and L) [SEQ ID NO: 140], for which half-maximal inhibition with β-catenin [2] (IC50) was put at 8160 nM.
